Assay results as given in US20220241202A1, “METHOD AND VEHICLE FOR DELIVERING AGENTS ACROSS THE BLOOD-BRAIN BARRIER” (priority 2019, published 2022).

What was measured:
Format in all cases: cell-based
[1] = system: CAD cells; assay: EV secretion of GFP-tagged 72Q huntingtin^exon1 from CAD cells with or without β amyloid peptide; details: 12.5 μg/ml β amyloid peptide, added 6 hours after transfection, media collected at 48 hours
Description: CAD cells were transiently transfected with GFP-tagged 72Q huntingtin^exon1 and a vector control, CSPα, DnaJB2long, or DnaJB6long. 6 hours after transfection, the cells were treated with 12.5 μg/ml β amyloid peptide (Aβ) or left untreated. 48 hours after transfection, the media was collected, EVs were prepared, and EV secretion of GFP-tagged 72Q huntingtin^exon1 was measured.

[2] = system: CAD cells; assay: Cell viability after media collection (XTT assay); details: various levels of CSPα expression
Description: (§1) Cell lines were transfected with the molecular chaperone CSPα and a GFP-tagged protein. CAD cells (catecholaminergic derived CNS cells) were the cell line utilized. Other cell lines, including patient-derived cell lines, may also be utilized. cDNAs encoding for myc-tagged CSPα or vector alone and GFP-72Q huntingtin^exon1 were transiently transfected with Lipofectamine™ 3000 (Invitrogen) in Opti-MEM™ medium. Media was changed to serum-free media 6 hours post-transfection. Media was collected 48 hours after transfection, spun at 300×g for 5 min to remove cell debris and evaluated without further processing by nanocyte tracking analysis, nanoscale flow cytometry analysis and dot blot analysis. For western blot analysis, EVs were isolated from the unfractionated media by exoquick precipitation solution (SBI) and solubilized in sample buffer. Following media collection, cell viability was determined using an XTT assay (New England Biolabs). When resveratrol was used, it was added to the serum-free media 6 hours post-transfection at the time of the media change.

[3] = system: CAD cells; assay: Nanoscale flow cytometry of EVs secreted from CAD cells expressing GFP-72Q huntingtin^exon1
Description: as §1
For NTA and nanoscale flow cytometry analysis, all samples were diluted 25 fold using 0.2× phosphate buffered saline that had been filtered twice through 0.2 μm filter. For NTA analysis, all samples were analyzed using the Nanosight LM10 (405 nm laser, 60 mW, software version 3.00064). Samples were analyzed in triplicate for 60 seconds per replicate with a count range of 20-100 particles per frame. A variety of NIST (Thermo Scientific 3000 Series) standards were analyzed, each the day prior to sample analysis. The system was cleaned between each sample and checked for any sample carryover using the PBS diluent. NTA measures EVs within a size range from about 30 nm to about 1,000 nm.
Samples were similarly prepared for nanoscale flow cytometry as for NTA. All samples were analyzed using the Apogee A50 flow cytometry platform. Light scatter was provided using the 405 nm laser (75 mW); GFP signal was generated using the 488 nm laser (50 mW, 535/35) and far red signal was generated using the 630 nm laser (75 mW, 680/35). All samples were analyzed for 60 seconds. Optimization was performed to insure single EVs were being analyzed and single events were triggered by light scatter only. The system was cleaned each day prior to sample analysis and a variety of silica and polystyrene standards (Apogee 1493 standards) processed for instrument set up and QC. The silica standards were used to assess the relative size range of EVs. Nanoscale flow cytometry measures EVs within a size range from about 100 nm to about 1,300 nm. […]

[4] = cells express the protein, p<0.0001
[5] = presence of CSPα, no resveratrol

Molecule: β amyloid peptide: β amyloid peptide (Aβ, AggreSure™ obtained from AnaSpec)
- secretion of GFP-tagged 72Q huntingtin^exon1 by CSPα, DnaJB2long and DnaJB6long [1]: increased the secretion of GFP-tagged 72Q huntingtin^exon1

B1: CSPα: cysteine string protein alpha, DnaJ domain-containing protein chaperone, myc-tagged, expressed in CAD cells (protein, UniProt Q9H3Z4 1-198, looked up)
DnaJ homolog subfamily C …: MADQRQRSLSTSGESLYHVLGLDKNATSDDIKKSYRKLALKYHPDKNPDNPEAADKFKEINNAHAILTDATKRNIYDKYGSLGLYVAEQFGEENVNTYFVLSSWWAKALFVFCGLLTCCYCCCCLCCCFNCCCGKCKPKAPEGEETEFYVSPEDLEAQLQSDEREATDTPIVIQPASATETTQLTADSHPSYHTDGFN
modifications: myc tag
notes: cysteine string protein alpha, DnaJ domain-containing protein chaperone, myc-tagged, expressed in CAD cells
- Cell viability after media collection [2]: not influenced
- Secretion of EVs containing GFP-tagged 72Q huntingtin^exon1 [3, 4]: dramatically increased
- percentage of EVs containing GFP-72Q huntingtin^exon1 within the total EV pool [3, 4]: dramatically increased
- increase of export of EVs containing GFP-72Q huntingtin^exon1 within the 180-240 nm subpopulation ([3]; p<0.0001): > 400%
- EVs containing GFP cargo within the 180-240 nm subpopulation [3, 5]: 1%
- EVs containing GFP cargo within the <180 nm subpopulation [3, 5]: 0.06%
- EVs containing GFP cargo within the >240 nm subpopulation [3, 5]: 1.6%
- 180-240 nm EV export of GFP-72Q huntingtin^exon1 as a function of cellular CSPα expression ([3]; various levels of CSPα, parallel western blot): correlates with increases in 180-240 nm EV export
